Measurements reported in patent publication US20260184748A1 (University of Pennsylvania, published 2026).
Where no end group is shown, it is not given here. [ ]: non-standard residue; d: D form.

T1: FPR1 (UniProt P21462 1-350)
T1 sequence (looked up): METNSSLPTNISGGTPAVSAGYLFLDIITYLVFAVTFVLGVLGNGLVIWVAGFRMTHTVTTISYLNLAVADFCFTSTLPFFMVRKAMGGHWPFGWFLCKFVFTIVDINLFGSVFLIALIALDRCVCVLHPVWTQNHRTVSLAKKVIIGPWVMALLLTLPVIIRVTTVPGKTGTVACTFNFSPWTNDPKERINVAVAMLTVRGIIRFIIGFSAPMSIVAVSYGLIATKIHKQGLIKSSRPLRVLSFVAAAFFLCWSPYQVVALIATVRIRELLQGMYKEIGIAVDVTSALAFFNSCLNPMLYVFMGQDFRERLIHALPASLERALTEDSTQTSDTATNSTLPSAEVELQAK

T2: FPRL1 (UniProt P25090 1-351)
T2 sequence (looked up): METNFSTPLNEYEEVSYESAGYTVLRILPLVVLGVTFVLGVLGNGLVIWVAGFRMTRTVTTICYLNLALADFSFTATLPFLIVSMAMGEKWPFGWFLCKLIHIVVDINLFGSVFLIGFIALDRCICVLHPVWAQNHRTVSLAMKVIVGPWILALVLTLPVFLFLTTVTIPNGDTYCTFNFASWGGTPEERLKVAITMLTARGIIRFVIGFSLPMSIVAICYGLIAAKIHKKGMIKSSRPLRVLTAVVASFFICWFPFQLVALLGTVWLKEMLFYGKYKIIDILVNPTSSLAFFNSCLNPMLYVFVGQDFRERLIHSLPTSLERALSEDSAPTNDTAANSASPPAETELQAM


Columns and labels:
Assay in all cases: cell-based or functional assay
[1] = target: F2RL1 (UniProt P55085 26-397, limits assumed)
[2] = target: T1, FPR1
[3] = target: T2, FPRL1

Binder | EC50 (RC50), arrestin, agonist mode [1] [nM] | EC80, arrestin, agonist mode [1] [nM] | EC80, arrestin, agonist mode [2] [nM] | EC80, arrestin, agonist mode [3] [nM]
SLIGRL-NH2 [SLIGRL-NH2] | 552 | 2130 |  | 
WKYMV[dM]-NH2 [WKYMVm-NH2] |  |  | 25.2 | 11.8
